According to patent US20230242902A1, “A HIGHLY ERROR-PRONE […] R[…] FOR TARGETED CONTINUOUS EVOLUTION IN VIVO” (The Regents of the University of California, priority 2017, published 2023):

Legend:
[1] = test system: p2; assay: p2 copy number by mKate2 fluorescence calibrated with qPCR; type: cell-based, S. cerevisiae; details: GA-Y021
Protocol: To precisely measure p1 and p2 per-base substitution mutation rates, several modifications were made to the small-scale protocol. First, 36 replicates were performed for reconfirmation of candidate TP-DNAP2 mutators, and 48 replicates for genomic and mutual orthogonality experiments. Titers were also determined for each strain after spot plating by pooling the residual volume from 4 replicates and plating dilutions on YPD. The expected number of LEU2 functional mutants (m) was determined by the Ma-Sandri-Sarkar maximum likelihood estimator (as calculated by the FALCOR tool and corrected for partial plating (Foster, 2006, Methods Enzymol, 409:195-213; Sarkar et al., 1992, Genetica, 85:173-179; Hall et al., 2009, Bioinformatics, 25:1564-1565). The mean mKate2 fluorescence was determined from 50,000 event counts on Attune™ NxT Flow Cytometer and converted to p2 copy number by using a calibration curve. To determine per-base substitution rates, the corrected m was normalized to the average cell titer, the p2 copy number, and the target size for functional leu2* reversion (2.33 bp). […]
A standard curve relating p2 copy number to mKate2 fluorescence was prepared by combining quantitative PCR with flow cytometry. […] All extracts were diluted 4000-fold for use in two distinct qPCR reactions, one to quantify p2-encoded leu2* and the other to quantify the genomic copy of LEU3. […]

[2] = test system: p1; assay: p1 copy number by p1-encoded mKate2 fluorescence; type: cell-based, S. cerevisiae
Procedure, shortened: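 Read-out is mKate2 fluorescence of saturated OR-Y24 cultures, measured by flow cytometry or by plate reader with OD600 normalization. Flow values were converted by a qPCR-derived linear calibration; plate values were scaled to a w.t. TP-DNAP1 control.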

B1: WT: wild-type Kluyveromyces lactis DNA polymerase TP-DNAP2, SEQ ID NO:13 (protein, listed as Kluyveromyces lactis)
chain: MNDELAFLNSQIDDYSDDIEFLRTEVFRINRYSKSIYSLMKNSSKEAIKETIEFNKYGQEIHSKIKEKEISLIEAIKLMEKKYKYLRSLNKTKDKSKKKKIHTKDIETLKTIYKTKADFDIRNFKNAETFTYENYSLLIPSEKELIDLIPEIEEDYSYYFYVSLTITGPTIFGGVTRKVPIIDTYGDINKDFYNKIKENITKVLDRVPFYEEKESEIICKKVLITLTVNKWESIDKWYKNVKSKSKKFKDFTLFLASDTSKNCVQQCVEYLGGKWNTNYSLEKMIPQQKIVTYIPLLMDIQYVQSMEDLISDFDEPNTDCKNIARLLKWNGHMGVITKIDKDVKINRIQRKRIIDVENKEVKEVFFDIESFSDETKHQIPYLICWSYLGELYYRTGKNCIKEFVEEILSYNVDIILYAWYGSGYDYQHVLPYMKSKCIKDKYIIKNNMITYGELYYENAIIYLKDPYLFILTSLDKASKAFNVINKGEFPHSIIHSWEDLNKILPNWVKIQKRMIEYKDDNKLNIYYKNIEIFENDRNYNTILENAIEYCKVDVLAMEKVWIKFKKLLEKNLNITVSVKTFTLSQLSMKIMESKLPKYVKLYVPTLEEYSKIRNAIYGGRVISKNGIYEENIVYADVVSLYPSAMKLLKHSYGKPKLVDYIDFEKHGIYRVTLLNKHDQEPKNYLNFVPRRINRKLTWEWFKIHEGWYHTYDLIIAKSEGFDIYCHEGFEYPEKDYIFNDFIDTLYSMKETHTACSCEEQPCPIRMVAKIALNGGGYGKFVQKPIDKEIYIVKRDVVAGECDKLQENENGEICIGKRLVKRPLFYNLDSENYDKMIIEKEDEPIYSTQCGISILSASRYRLYKLCKQFENIDIIYSDTDSIFVKQKSVDWELFKSKCGSELGQLDSTIDDTKNAIISKMYIGGAKMYAFEYLNNKNKLITKLHCKGVPNYMLSLNQFKYLMESPDNTIAYKFEIIRRKLVNVITKDLIKDIKQT
p2 copy number per cell [1]: 128

B2: TP-DNAP1-4-2: TP-DNAP1 variant (L477V, L640Y, I777K, W814N), encoded by SEQ ID NO:11 (protein, listed as Kluyveromyces lactis)
chain: MDYKDKALNDLRNVYADFDSLPLDFRQILIKDRATLLQKEDVEKKILERQEDAKKYAEYLKQSEIPERISLPNIKRHKGVSISFEETSEDMVLEPRPFIFDGLNIRCFRRETIFSLKNKILNMVKESSSFKNVSRQSVSFMYFKIFNKGKVIASTKSVNIYEDKIDERLEDLCNNFDDVLKKIIDVTYGYESLFVSETYSYVIFYAKSIYFPQPRCVNNWGNNIPNILTFDSFKLFTANKNNVSCIKQCSRFLWQKDFNTLEEMIEYKNGNICIVTPQLHINDVRDIKSFNDIRLYSESPIKTFSVIDNTITYLFYFKEHLGVIFNITKSRHDRRVTKFSPLSKFSDVKNITVCFDIESYFDPEKESNQVNIPFICCASIIYNKVIGNIVDFEGRDCVAQMIEYVVDICGELNISSVELIAHNGGGYDFHYILSSMYNPAAIKNILIRNNSFISFNFAHDGVKFSVKDSYSFLLCSVANASKAFLNEETFKKTDFPHHDLKTADDLYKVYKEWSSVNTEINHVVEKEKLLITSEHIVNFTKNDKSKTLIEWSKDYCRNDVLVLSKVWLEFKNAVEDIFNCELVDQTMTLAGLSYKLFQANMPFDVELRHPNKEDYFNMREALIGGRCISVNGIYKDVLCYDVKSLYPASMAFYDQPYGSFKRVSSRPKDELGIYYVRVTPNRNNKSNFFPIRSHNKITYNNFEESTYIAWYTNVDIDIGLSEGHNIEYIPFDSYGNIGYSWSKKGKIFEKYIKDVLYKLKIKYEKQNNKVKRNVIKKIMNSLWGKFAQKWVNFEYFIKSEDDIDFESEEAYKINDTDFMLIKKIKESTYSSKPIQNGVFTLSWARYHMKSIWDAGAKEGAECIYSDTDSIFVHKEHFKKNAKFMLNGLKVPIIGSEVGQLELECEFDKLLCAGKKQYMGFYTYFQDGKPCIKEKKRFKGIPSNYIIPELYAHLLSGADKEAKIQFLKFRREWGSVKGYIENKTVKAT
p1 copy number ([2]; sustained by TP-DNAP1 variant): ~5

B3: w.t.: wild-type Kluyveromyces lactis DNA polymerase TP-DNAP1, SEQ ID NO:1 (protein, listed as Kluyveromyces lactis)
chain: MDYKDKALNDLRNVYADFDSLPLDFRQILIKDRATLLQKEDVEKKILERQEDAKKYAEYLKQSEIPERISLPNIKRHKGVSISFEETSEDMVLEPRPFIFDGLNIRCFRRETIFSLKNKILNMVKESSSFKNVSRQSVSFMYFKIFNKGKVIASTKSVNIYEDKIDERLEDLCNNFDDVLKKIIDVTYGYESLFVSETYSYVIFYAKSIYFPQPRCVNNWGNNIPNILTFDSFKLFTANKNNVSCIKQCSRFLWQKDFNTLEEMIEYKNGNICIVTPQLHINDVRDIKSFNDIRLYSESPIKTFSVIDNTITYLFYFKEHLGVIFNITKSRHDRRVTKFSPLSKFSDVKNITVCFDIESYFDPEKESNQVNIPFICCASIIYNKVIGNIVDFEGRDCVAQMIEYVVDICGELNISSVELIAHNGGGYDFHYILSSMYNPAAIKNILIRNNSFISFNFAHDGVKFSVKDSYSFLLCSLANASKAFLNEETFKKTDFPHHDLKTADDLYKVYKEWSSVNTEINHVVEKEKLLITSEHIVNFTKNDKSKTLIEWSKDYCRNDVLVLSKVWLEFKNAVEDIFNCELVDQTMTLAGLSYKLFQANMPFDVELRHPNKEDYFNMREALIGGRCISVNGIYKDVLCLDVKSLYPASMAFYDQPYGSFKRVSSRPKDELGIYYVRVTPNRNNKSNFFPIRSHNKITYNNFEESTYIAWYTNVDIDIGLSEGHNIEYIPFDSYGNIGYSWSKKGKIFEKYIKDVLYKLKIKYEKQNNKVKRNVIKIIMNSLWGKFAQKWVNFEYFIKSEDDIDFESEEAYKIWDTDFMLIKKIKESTYSSKPIQNGVFTLSWARYHMKSIWDAGAKEGAECIYSDTDSIFVHKEHFKKNAKFMLNGLKVPIIGSEVGQLELECEFDKLLCAGKKQYMGFYTYFQDGKPCIKEKKRFKGIPSNYIIPELYAHLLSGADKEAKIQFLKFRREWGSVKGYIENKTVKAT
Fold-change of p1 copy number over w.t. ([2]; G410 (w.t.) background): 1.0 ± 0.27 fold | Fold-change of p1 copy number over w.t. ([2]; variant additionally carrying G410H): 1.53 ± 0.33 fold
